Where “and” joins values, the source holds several entries; their conditions need not be identical. Equal entries are not always repeated. Entries after “also recorded” stand apart in the source; their conditions may differ.
Assays:
[1] = tested on: lethally irradiated mice; assay: Radioprotection assay: survival of mice after total body lethal irradiation; assay type: in vivo, mice (C57BL/6J); details: for animals with long-term survival (more than one year): 100 ng/mouse (5 ug/Kg)
Procedure: Mice received recombinant murine IL-12 (100 ng/mouse (which is about 5 ug/kg on average), intravenous injection) before (24 hours) or after (1 hour) lethal dose radiation (1000 rad). Mice in control group received equal volume of PBS buffer. Survival rate were analyzed by Kaplan-Meier method and p value was calculated using Log Rank Test.
To determine the minimum effective radioprotective dose of IL-12, different dose of IL-112 were administered to lethally irradiated animals before (24 hours before) or post (within one hour) lethal dose ionizing radiation.
IL-12 was administrated to mice at different doses 24 hours before radiation to determine if there is a dose dependent relationship between the concentration of IL-12 administration and survival from lethal irradiation.
To further explore the relationship of IL-12 hematopoietic rescue effect as it may relate to the time of administration, IL-12 was administrated to lethally irradiated animals at different time before and after the radiation. The following time points were tested: −48, −36, −24, and −12 hours before radiation, or +1, +12, +24, and +36 hours post radiation.
A study was conducted to determine if the radioprotective effect of IL-12 administration is specific and INF- ? independent. […] Also, an assessment was made to determine if there was a synergistic effect between GM-CSF and IL-12.
Mice were provided with acid water for one week before the radioprotection assay. Cytokines, diluted in phosphate buffered saline (PBS), pH 7.4, were intravenously injected into mice before or after total body lethal irradiation (TBI) at the specified times. Control group mice were injected with PBS buffer. For TBI, mice were either exposed twice to ionizing irradiation ( ? -ray from Cesium 137) at 500 rad dose with a 3 hour interval, or one time at a dose of 1000 rad in a Gammacell 40 machine from Atomic Energy of Canada LTD (Kanafa, Ontario, Canada). The ? -ray exposure rate is 1 Gy/min. […] After irradiation, mice were given water containing antibiotics. For the survival curve, the Kaplan-Meier method was used. Each experiment was repeated three or more times.

[2] = tested on: Sca-1+ cells; assay: Annexin V / Sca-1 detection after lethal dose radiation (apoptosis); assay type: in vivo, mice; details: IL-12 24 hours before 10 Gy, 7 hours post radiation
Procedure: IL-12 administration protects Annexin V^−/Sca-1^+ cells (H4) from radiation induced apoptosis, where the Sca-1^+ positive cells are indicative of the presence of hematopoietic repopulating cell or hematopoietic stem cells and Annexin V negative cells are indicative of the functional bone marrow cells.
A study was conducted to assess whether IL-12 administration protects Sca-1+ cells from radiation induced apoptosis. The Sca-1+ is a marker for hematopoietic repopulating cell or stem/progenitor cells. 24 hours post IL-12 administration, mice received lethal dose radiation (10 Gy). 7 hours post radiation, mice were sacrificed and bone marrow cells were isolated to detect Annexin V (an indication of cell apoptosis) and Sca-1 antigen (stem cell marker).

[3] = tested on: peripheral blood cells; assay: Peripheral blood cell counts after lethal or sublethal irradiation; assay type: in vivo, mice (C57BL/6J)
Excerpt: After lethal dose radiation (10 Gy), the full blood cell count dropped to lowest point for both IL-12 treated and non-treated mice. However, 11-12 treated mice start to recover at day 14 post radiation while the control animals died out. It is noteworthy that the recovery is multi-lineage, including white blood cell, red blood cell and platelets.
Here too, the recovery is broad range and encompasses all blood lineages and blood cell types. […] This effect is somewhat better when IL-12 was administrated 24 hours before radiation than IL-12 administrated after radiation.
For peripheral blood cell counts, 6-8 week old female C57BL/6J mice received an i.v. injection of IL-12 before or after lethal (1000 rad) or sub-lethal (500 rad) irradiation. 10 ul blood was taken from the tail to do blood cell count analyses in a MASCOT Multispecies Hematology Systems (CDC Technologies, Oxford, Conn.) at different days after irradiation. Each group had at least 3 mice.

[4] = tested on: bone marrow cells; assay: Cell cycle analysis with propidium iodide staining; assay type: in vivo, mice; details: 24 hours post IL-12 administration; control 10%, p<0.05
Procedure: It is believed that cells at S phase are more resistant to radiation. Both Brd-U incoperation and cell cycling analysis were performed to determine if IL-12 can stimulate bone marrow cell proliferation. In IL-12 treated mice, there are more bone marrow cells in S phase compared with control animals (12% vs 10%, p<0.05). Furthermore, there are more BrdU positive cells in IL-12 treated bone marrow compared with control animals (17% vs 8%, p<0.05).
24 hours post IL-12 administration (10 ng/mouse), bone marrow cells were isolated for BrdU incooperation assay (FIG. 7A).
For the cell cycling assay, IL-12 (100 ng/mouse) or PBS was intravenously injected into mice. 24 hours after injection, whole bone marrow cells were flushed from femurs and treated with lysis buffer to destroy red blood cells. After washing in PBS and fixing in −20° C. pure ethanol for at least 1 hour, about 5×10^5 bone marrow cells were treated with RNase A (20 ng/ul final concentration) at 37° C. for 30 minutes, then stained with propidium iodide (100 ng/ul final concentration) from Sigma (St Louis, Mo.) at room temperature for 15 to 30 minutes and then processed directly for cell cycling analysis using fluorescence activated cell sorting (FACS).

[5] = cytokine given 1 hour post lethal dose radiation

B1: IL-12: Recombinant murine interleukin 12, heterodimeric cytokine (p35+p40), purchased from R&D Systems or PeproTech (protein, UniProt P43431 23-215; P43432 23-335, looked up)
Interleukin-12 subunit alpha: RVIPVSGPARCLSQSRNLLKTTDDMVKTAREKLKHYSCTAEDIDHEDITRDQTSTLKTCLPLELHKNESCLATRETSSTTRGSCLPPQKTSLMMTLCLGSIYEDLKMYQTEFQAINAALQNHNHQQIILDKGMLVAIDELMQSLNHNGETLRQKPPVGEADPYRVKMKLCILLHAFSTRVVTINRVMGYLSSA
Interleukin-12 subunit beta: MWELEKDVYVVEVDWTPDAPGETVNLTCDTPEEDDITWTSDQRHGVIGSGKTLTITVKEFLDAGQYTCHKGGETLSHSHLLLHKKENGIWSTEILKNFKNKTFLKCEAPNYSGRFTCSWLVQRNMDLKFNIKSSSSSPDSRAVTCGMASLSAEKVTLDQRDYEKYSVSCQEDVTCPTAEETLPIELALEARQQNKYENYSTSFFIRDIIKPDPPKNLQMKPLKNSQVEVSWEYPDSWSTPHSYFSLKFFVRIQRKKEKMKETEEGCNQKGAFLVEKTSTEVQCKGGNVCVQAQDRYYNSSCSKWACVPCRVRS
**Q.** B1 was tested. Which “animals with long-term survival (more than one year)” value ([1]; 24 hours before lethal radiation) did it give?
**A.** The value was 95%.

**Q.** What about the “animals with long-term survival (more than one year)” value ([1]; post lethal radiation) of the same molecule?
**A.** The value was 75%.

**Q.** And the “survival difference versus control (Kaplan-Meier, Log Rank Test)” value ([1]; 100 ng/mouse i.v., 24 hours before or 1 hour after 1000 rad, p<0.001)?
**A.** The value was “statistically significant; also recorded: significant better survival”.

**Q.** What about the “Survives (30 days)” value ([1]; IL-12 dose 5 ng/mouse, 24 hours before radiation, 5 mice) of the same molecule?
**A.** The value was 0.

**Q.** And the “Survival rate (%)” value ([1]; IL-12 dose 5 ng/mouse, 24 hours before radiation, 30 days)?
**A.** Its value is 0%.

**Q.** And the “Survives (30 days)” value ([1]; IL-12 dose 10 ng/mouse, 24 hours before radiation, 5 mice)?
**A.** The value was 0.

**Q.** What about the “Survival rate (%)” value ([1]; IL-12 dose 10 ng/mouse, 24 hours before radiation, 30 days) of the same molecule?
**A.** Its value is 0%.

**Q.** What about the “Survives (30 days)” value ([1]; IL-12 dose 25 ng/mouse, 24 hours before radiation, 5 mice) of the same molecule?
**A.** Its value is 2.

**Q.** What about the “Survival rate (%)” value ([1]; IL-12 dose 25 ng/mouse, 24 hours before radiation, 30 days) of the same molecule?
**A.** Its value is 40%.

**Q.** What about the “Survives (30 days)” value ([1]; IL-12 dose 50 ng/mouse, 24 hours before radiation, 5 mice) of the same molecule?
**A.** The value was 3.

**Q.** And the “Survival rate (%)” value ([1]; IL-12 dose 50 ng/mouse, 24 hours before radiation, 30 days)?
**A.** Its value is 60%.

**Q.** And the “Survives (30 days)” value ([1]; IL-12 dose 100 ng/mouse, 24 hours before radiation, 5 mice)?
**A.** The value was 4.

**Q.** And the “Survival rate (%)” value ([1]; IL-12 dose 100 ng/mouse, 24 hours before radiation, 30 days)?
**A.** The value was 80%.

**Q.** What about the “Survives (30 days)” value ([1]; IL-12 dose 200 ng/mouse, 24 hours before radiation, 5 mice) of the same molecule?
**A.** Its value is 3.

**Q.** What about the “Survival rate (%)” value ([1]; IL-12 dose 200 ng/mouse, 24 hours before radiation, 30 days) of the same molecule?
**A.** Its value is 60%.

**Q.** What about the “Survival rate (%)” value [1, 5] of the same molecule?
**A.** The value was 80%.

**Q.** What about the radioprotective effect [1, 5] of the same molecule?
**A.** The radioprotective effect was “only cytokine tested that can protect mice from lethal dose radiation”.

**Q.** And the Survives ([1]; cytokine given 1 hour post lethal dose radiation, 4-5 mice per group)?
**A.** Its Survives is 4.

**Q.** What about the “survival at higher dose” value ([1]; higher dose (up to 50 ug/kg) compared with 5 ug/kg) of the same molecule?
**A.** Its value is “did not yield greater survival”.

**Q.** What about the “Survival rate (%)” value ([1]; injection 1 hr after lethal irradiation) of the same molecule?
**A.** Its value is 80%.

**Q.** What about the Survives ([1]; injection 1 hr after lethal irradiation, 5 mice) of the same molecule?
**A.** The Survives was 4.

**Q.** What about the “Survival rate (%)” value ([1]; injection 12 hrs after lethal irradiation) of the same molecule?
**A.** Its value is 0%.

**Q.** What about the Survives ([1]; injection 12 hrs after lethal irradiation, 5 mice) of the same molecule?
**A.** The Survives was 0.

**Q.** What about the “Survival rate (%)” value ([1]; injection 12 hrs before lethal irradiation) of the same molecule?
**A.** Its value is 20%.

**Q.** And the Survives ([1]; injection 12 hrs before lethal irradiation, 10 mice)?
**A.** Its Survives is 2.

**Q.** What about the “Survival rate (%)” value ([1]; injection 24 hrs after lethal irradiation) of the same molecule?
**A.** The value was 20%.

**Q.** And the Survives ([1]; injection 24 hrs after lethal irradiation, 10 mice)?
**A.** Its Survives is 2.

**Q.** And the “Survival rate (%)” value ([1]; injection 24 hrs before lethal irradiation)?
**A.** The value was 100%.

**Q.** What about the Survives ([1]; injection 24 hrs before lethal irradiation, 10 mice) of the same molecule?
**A.** The Survives was 10.

**Q.** What about the “Survival rate (%)” value ([1]; injection 36 hrs after lethal irradiation) of the same molecule?
**A.** The value was 0%.

**Q.** What about the Survives ([1]; injection 36 hrs after lethal irradiation, 5 mice) of the same molecule?
**A.** Its Survives is 0.

**Q.** What about the “Survival rate (%)” value ([1]; injection 36 hrs before lethal irradiation) of the same molecule?
**A.** Its value is 0%.

**Q.** What about the Survives ([1]; injection 36 hrs before lethal irradiation, 10 mice) of the same molecule?
**A.** The Survives was 0.

**Q.** What about the “Survival rate (%)” value ([1]; injection 48 hrs before lethal irradiation) of the same molecule?
**A.** The value was 0%.

**Q.** What about the Survives ([1]; injection 48 hrs before lethal irradiation, 10 mice) of the same molecule?
**A.** Its Survives is 0.

**Q.** What about the “best administration time for radioprotection” value ([1]; lethal dose radiation) of the same molecule?
**A.** Its value is 24 hours before or 1 hour post radiation.

**Q.** And the “optimal radioprotective dose (best survival rate)” value ([1]; mice, lethal dose radiation)?
**A.** Its value is 5 µg/kg.

**Q.** What about the “AnnexinV-/Sca-1+ cells in whole bone marrow” value ([2]; control 9.7±1.5%, p<0.01) of the same molecule?
**A.** Its value is 19.2±3.7% and 19.2±2.3%.

**Q.** What about the “proportion of AnnexinV-/Sca-1+ cells in total Sca-1+ cells” value ([2]; control 44±5%, p<0.05) of the same molecule?
**A.** Its value is 54±5%.

**Q.** What about the “time to reach normal blood cell count” value ([3]; lethal dose radiation (10 Gy)) of the same molecule?
**A.** Its value is “about 30 days post radiation”.

**Q.** What about the “day at which blood cell counts start to recover” value ([3]; lethal dose radiation (10 Gy), 100 ng/mouse) of the same molecule?
**A.** Its value is at most 14 day post radiation.

**Q.** And the “day at which blood cell counts start to recover” value ([3]; lethal dose radiation (10 Gy), 100 ng/mouse, listed as 11-12)?
**A.** The value was 14 day post radiation.

**Q.** What about the “blood cell count recovery versus control” value ([3]; sublethal radiation (500 rad), 100 ng/mouse) of the same molecule?
**A.** The value was “accelerates the blood cell count recovery”.

**Q.** And the “red blood cell, platelet, white blood cell and monocyte versus control” value ([3]; sublethal radiation (500 rad), day 5 and 8 post radiation, p<0.05)?
**A.** The value was “statistically higher”.

**Q.** And the “bone marrow cells in S phase” value [4]?
**A.** Its value is 12%.

Reference: patent publication US10029000B2, “Uses of IL-12 in hematopoiesis” (University of Southern California, priority 2003, dated 2018)
